We go through one protein from patent US20240247301A1, “DIAGNOSTIC ASSAY FOR CLASSIC INBORN GALACTOSEMIA” (Ohio State Innovation Foundation, priority 2022, published 2024).

Substrate in this series: O=P(O)(O)O[C@H]1O[C@H](CO)[C@H](O)[C@H](O)[C@H]1O
The experiment in a line: purified protein, by the assay type.

Setting [1] is: other: SUMO-tagged YidA as coupling enzyme, pH 8.0.

Several values for one entry are separate records, joined by “and”; a condition that tells them apart may be missing. Identical values can stand only once.

B1: Duarte GalT (galactose-1-phosphate uridylyltransferase, Duarte variant) (Homo sapiens; N314D) (protein)
chain: MSRSGTDPQQRQQASEADAAAATFRANDHQHIRYNPLQDEWVLVSAHRMKRPWQGQVEPQLLKTVPRHDPLNPLCPGAIRANGEVNPQYDSTFLFDNDFPALQPDAPSPGPSDHPLFQAKSARGVCKVMCFHPWSDVTLPLMSVPEIRAVVDAWASVTEELGAQYPWVQIFENKGAMMGCSNPHPHCQVWASSFLPDIAQREERSQQAYKSQHGEPLLMEYSRQELLRKERLVLTSEHWLVLVPFWATWPYQTLLLPRRHVRRLPELTPAERDDLASIMKKLLTKYDNLFETSFPYSMGWHGAPTGSEAGANWDHWQLHAHYYPPLLRSATVRKFMVGYEMLAQAQRDLTPEQAAERLRALPEVHYHLGQKDRETATIA
In general, Km refers to the concentration of substrate that gives half-maximal velocity. Usually kcat stands for the number of substrate molecules converted per active site and unit of time at saturation. On to B1, for which the Michaelis constant (Km) runs as follows: under setting [1], 890 ± 30 µM; (other: mean ± SD of three independent trials, pH 8.0) 660 ± 20 µM and 530 ± 40 µM; (other: single trials, ± curve-fit error, pH 8, 37° C., 0.8 mM UDP-glucose, 37.0 °C) 550 ± 90 µM and 480 ± 30 µM; (other: single trials, ± curve-fit error, pH 8.0, 37° C., 1 mM UDP-glucose, 37.0 °C) 670 ± 180 µM and 630 ± 140 µM and 670 ± 150 µM. For the same protein, under setting [1], the catalytic constant (kcat) was found to be 14.8 ± 0.867 s⁻¹.
